According to patent publication US20190071517A1 (KANAGAWA PREFECTURAL HOSPITAL ORGANIZATION, published 2019):

Columns and labels:
HEG1 1kb = biological target: T1, HEG1 1kb (human, UniProt Q9ULI3 986-1381); test: Western blot of cell lysate
T1 construct: Inserted into pFLAG-CMV1, expressed in ACC-MESO-1; also called fragment 1kb
T1 sequence: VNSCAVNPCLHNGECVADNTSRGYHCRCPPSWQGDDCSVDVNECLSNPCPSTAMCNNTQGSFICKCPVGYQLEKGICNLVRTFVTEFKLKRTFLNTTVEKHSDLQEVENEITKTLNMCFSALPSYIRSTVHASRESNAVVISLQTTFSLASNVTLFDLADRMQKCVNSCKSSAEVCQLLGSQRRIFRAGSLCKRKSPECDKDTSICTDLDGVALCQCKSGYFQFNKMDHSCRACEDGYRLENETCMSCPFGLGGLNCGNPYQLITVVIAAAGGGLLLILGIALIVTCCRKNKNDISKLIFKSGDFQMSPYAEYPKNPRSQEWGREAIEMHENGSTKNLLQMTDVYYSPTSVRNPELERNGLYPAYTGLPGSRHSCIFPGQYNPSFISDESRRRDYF
Protocol: Gene transfer was performed with HEG1 siRNA (H9106) (SEQ ID NOs: 40, 41) and human HEG1 for the mesothelioma cell line ACC-MESO-1, and the reactivity of the SKM9-2 was examined through Western blot analysis. A full length protein (HEG1 full length) or a fragment (HEG1 3kb, HEG1 2kb, or HEG1 1kb) of the human HEG1 was used. The full length human HEG1 protein, a protein having the amino acid sequence set forth in SEQ ID NO: 35, was obtained through inserting a base sequence set forth in SEQ ID NO: 34 into pFLAG-CMV1 (Sigma-Aldrich Japan K.K.) to obtain a plasmid, transforming the plasmid, and allowing the mesothelioma cell line to express the plasmid. Fragment HEG1 3kb was obtained through inserting a fragment corresponding to a sequence from position 285, leucine, to position 1387, phenylalanine, of SEQ ID NO: 35 into pFLAG-CMV1 (Sigma-Aldrich Japan K.K.) in an in-frame manner, and allowing the mesothelioma cell line to express the resultant. […] Each cell lysate was analyzed through Western blot with the SKM9-2 antibody.

HEG1 2kb = biological target: T2, HEG1 2kb (human, UniProt Q9ULI3 671-1381); test: Western blot of ACC-MESO-1 cell lysate
T2 construct: Inserted into pFLAG-CMV1, expressed in ACC-MESO-1; also called fragment 2kb
T2 sequence: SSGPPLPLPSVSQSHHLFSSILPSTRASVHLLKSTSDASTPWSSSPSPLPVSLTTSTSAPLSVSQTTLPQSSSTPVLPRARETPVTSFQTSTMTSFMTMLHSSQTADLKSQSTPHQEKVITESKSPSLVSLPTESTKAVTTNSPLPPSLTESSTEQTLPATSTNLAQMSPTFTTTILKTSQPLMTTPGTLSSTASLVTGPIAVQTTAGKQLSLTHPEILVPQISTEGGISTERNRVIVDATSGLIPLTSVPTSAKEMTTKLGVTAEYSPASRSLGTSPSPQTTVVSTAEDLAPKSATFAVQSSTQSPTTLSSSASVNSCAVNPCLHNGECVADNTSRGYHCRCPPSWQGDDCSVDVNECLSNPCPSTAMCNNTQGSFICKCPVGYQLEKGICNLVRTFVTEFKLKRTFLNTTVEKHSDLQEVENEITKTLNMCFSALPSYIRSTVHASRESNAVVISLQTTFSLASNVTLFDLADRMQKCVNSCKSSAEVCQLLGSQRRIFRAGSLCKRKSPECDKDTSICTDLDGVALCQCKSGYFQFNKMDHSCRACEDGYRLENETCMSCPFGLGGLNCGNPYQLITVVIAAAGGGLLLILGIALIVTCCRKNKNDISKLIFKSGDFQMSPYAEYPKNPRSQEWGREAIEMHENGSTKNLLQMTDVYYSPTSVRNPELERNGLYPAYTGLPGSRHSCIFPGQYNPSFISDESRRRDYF
Protocol: (§1) Gene transfer was performed with HEG1 siRNA (H9106) (SEQ ID NOs: 40, 41) and human HEG1 for the mesothelioma cell line ACC-MESO-1, and the reactivity of the SKM9-2 was examined through Western blot analysis. A full length protein (HEG1 full length) or a fragment (HEG1 3kb, HEG1 2kb, or HEG1 1kb) of the human HEG1 was used. The full length human HEG1 protein, a protein having the amino acid sequence set forth in SEQ ID NO: 35, was obtained through inserting a base sequence set forth in SEQ ID NO: 34 into pFLAG-CMV1 (Sigma-Aldrich Japan K.K.) to obtain a plasmid, transforming the plasmid, and allowing the mesothelioma cell line to express the plasmid. Fragment HEG1 3kb was obtained through inserting a fragment corresponding to a sequence from position 285, leucine, to position 1387, phenylalanine, of SEQ ID NO: 35 into pFLAG-CMV1 (Sigma-Aldrich Japan K.K.) in an in-frame manner, and allowing the mesothelioma cell line to express the resultant. HEG1 2kb and HEG1 1kb were obtained through allowing the mesothelioma cell line to express products similarly obtained from a fragment corresponding to a sequence from position 677, leucine, to position 1387, phenylalanine, of SEQ ID NO: 35 and a fragment corresponding to a sequence from position 992, valine, to position 1387, phenylalanine, of SEQ ID NO: 35, respectively. Each cell lysate was analyzed through Western blot with the SKM9-2 antibody.

HEG1 3kb = biological target: T3, HEG1 3kb (human, UniProt Q9ULI3 285-1381); test: Western blot of ACC-MESO-1 cell lysate
T3 construct: Inserted in frame into pFLAG-CMV1, expressed in ACC-MESO-1; what the vector adds is not described; also called fragment 3kb
T3 sequence: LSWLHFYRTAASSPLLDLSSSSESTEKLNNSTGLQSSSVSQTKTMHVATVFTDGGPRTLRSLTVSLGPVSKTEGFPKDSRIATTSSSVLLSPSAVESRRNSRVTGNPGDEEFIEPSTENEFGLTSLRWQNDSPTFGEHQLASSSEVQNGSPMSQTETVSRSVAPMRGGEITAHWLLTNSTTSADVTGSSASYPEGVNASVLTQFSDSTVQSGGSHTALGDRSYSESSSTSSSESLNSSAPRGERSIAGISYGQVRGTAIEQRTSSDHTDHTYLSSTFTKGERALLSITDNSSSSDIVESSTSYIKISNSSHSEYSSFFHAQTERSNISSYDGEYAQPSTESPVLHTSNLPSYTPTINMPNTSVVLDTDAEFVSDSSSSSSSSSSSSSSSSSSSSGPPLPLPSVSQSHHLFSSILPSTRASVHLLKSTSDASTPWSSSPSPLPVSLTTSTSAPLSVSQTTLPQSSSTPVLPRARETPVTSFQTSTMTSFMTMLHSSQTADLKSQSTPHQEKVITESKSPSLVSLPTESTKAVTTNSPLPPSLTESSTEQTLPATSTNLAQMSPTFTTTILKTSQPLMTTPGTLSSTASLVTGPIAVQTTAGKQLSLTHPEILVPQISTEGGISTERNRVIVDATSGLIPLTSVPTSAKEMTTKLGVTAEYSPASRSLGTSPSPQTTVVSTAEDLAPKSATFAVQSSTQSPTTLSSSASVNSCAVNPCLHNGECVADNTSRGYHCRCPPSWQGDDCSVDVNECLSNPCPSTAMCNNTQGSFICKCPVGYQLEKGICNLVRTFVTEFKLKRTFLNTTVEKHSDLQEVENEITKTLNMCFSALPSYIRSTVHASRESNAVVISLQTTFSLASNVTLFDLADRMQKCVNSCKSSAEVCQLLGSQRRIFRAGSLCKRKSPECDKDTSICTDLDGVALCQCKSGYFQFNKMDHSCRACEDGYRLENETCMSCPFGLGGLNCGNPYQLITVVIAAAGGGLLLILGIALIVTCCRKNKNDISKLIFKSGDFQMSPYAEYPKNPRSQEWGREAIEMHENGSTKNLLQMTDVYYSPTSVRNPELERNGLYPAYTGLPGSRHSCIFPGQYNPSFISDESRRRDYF
Protocol: as §1

[1] = biological target: T4, HEG1 full length (full length human HEG1 protein expressed in ACC-MESO-1) (human, UniProt Q9ULI3 30-1381, limits assumed); test: Western blot of ACC-MESO-1 cell lysate
T4 construct: Full length; expressed from pFLAG-CMV1 in ACC-MESO-1 with the endogenous HEG1 knocked down; cell lysate in Western blot; What the vector adds is not described; also called full length protein
T4 sequence: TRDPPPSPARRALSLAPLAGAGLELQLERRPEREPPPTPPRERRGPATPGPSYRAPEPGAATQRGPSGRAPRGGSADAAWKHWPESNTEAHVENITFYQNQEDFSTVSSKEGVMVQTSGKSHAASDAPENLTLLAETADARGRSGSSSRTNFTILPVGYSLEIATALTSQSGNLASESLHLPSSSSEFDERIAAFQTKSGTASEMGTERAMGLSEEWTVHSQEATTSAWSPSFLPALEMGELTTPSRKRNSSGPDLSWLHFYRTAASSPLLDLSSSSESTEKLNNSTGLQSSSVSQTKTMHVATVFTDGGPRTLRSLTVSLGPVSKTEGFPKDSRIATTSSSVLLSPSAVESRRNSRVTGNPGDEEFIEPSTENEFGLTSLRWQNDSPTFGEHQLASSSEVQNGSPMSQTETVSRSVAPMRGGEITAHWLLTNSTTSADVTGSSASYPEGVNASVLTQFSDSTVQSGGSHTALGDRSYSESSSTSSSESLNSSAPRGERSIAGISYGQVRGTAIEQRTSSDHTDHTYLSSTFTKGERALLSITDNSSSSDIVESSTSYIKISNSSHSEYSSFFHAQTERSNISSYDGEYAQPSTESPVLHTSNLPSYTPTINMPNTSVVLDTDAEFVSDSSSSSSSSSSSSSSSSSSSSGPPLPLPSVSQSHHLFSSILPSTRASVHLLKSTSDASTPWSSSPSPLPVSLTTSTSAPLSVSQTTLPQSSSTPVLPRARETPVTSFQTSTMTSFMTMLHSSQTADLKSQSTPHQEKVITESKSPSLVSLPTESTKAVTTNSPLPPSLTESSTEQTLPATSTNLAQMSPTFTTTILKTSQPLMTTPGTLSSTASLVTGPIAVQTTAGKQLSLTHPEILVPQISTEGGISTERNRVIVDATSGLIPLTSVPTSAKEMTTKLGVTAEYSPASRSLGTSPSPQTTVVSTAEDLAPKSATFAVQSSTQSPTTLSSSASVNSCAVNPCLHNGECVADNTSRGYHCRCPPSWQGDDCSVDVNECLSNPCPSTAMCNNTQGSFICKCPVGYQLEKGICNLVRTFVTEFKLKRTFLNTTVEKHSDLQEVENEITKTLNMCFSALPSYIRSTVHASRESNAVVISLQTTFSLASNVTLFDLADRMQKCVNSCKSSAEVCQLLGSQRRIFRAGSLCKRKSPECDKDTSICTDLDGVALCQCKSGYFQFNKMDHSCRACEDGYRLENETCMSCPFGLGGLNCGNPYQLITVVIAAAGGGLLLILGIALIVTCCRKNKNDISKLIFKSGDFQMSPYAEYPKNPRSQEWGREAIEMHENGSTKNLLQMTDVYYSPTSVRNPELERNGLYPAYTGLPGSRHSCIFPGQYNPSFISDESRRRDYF
Protocol: as §1

binding result (HEG1 1kb): no binding
binding result (HEG1 2kb): binds
binding result (HEG1 3kb): binds
binding result [1]: binds
B1: SKM9-2 antibody (antibody, mouse IgG1, kappa, V domains shown)
VH: QVQLQQPGAELVRPGASVKLSCKASGFSFTTYWITWVKQRPGQGLEWIGMIHPSDSETRLSQTFKDKATLTVDKSSNTAYMQFSSPTSEDSAVYYCVRDFDVWGAGTTVTVSS
VL: DVLMTQTPLSLPVSLGDQASISCRSSQNIVHNNGNTYLGWYLQKPGQSPKLLIFKVSNRFSGVPDRFSGSGSGTDFTLKISRVEAEDLGVYYCFQGSHIPRTFGGGTRLEIKR
notes: also called monoclonal antibody produced from the SKM9-2 hybridoma
